Measurements reported in patent publication US20160102121A1 (UNIVERSITY OF NORTH CAROLINA AT CHAPEL HILL, published 2016).
Where no end group is shown, it is not given here. [ ]: non-standard residue; d: D form. Nle = CCCC[C@H](N)C(=O)O

Target: epithelial Na+ channel (ENaC) on human bronchial epithelial cultures (human, UniProt P37088 1-669; P51168 1-640; P51170 1-649)
Assay: cell-based or functional assay

Sequence of epithelial Na+ channel (ENaC) on human bronchial epithelial cultures (P37088 whole entry, chain 1 of 3): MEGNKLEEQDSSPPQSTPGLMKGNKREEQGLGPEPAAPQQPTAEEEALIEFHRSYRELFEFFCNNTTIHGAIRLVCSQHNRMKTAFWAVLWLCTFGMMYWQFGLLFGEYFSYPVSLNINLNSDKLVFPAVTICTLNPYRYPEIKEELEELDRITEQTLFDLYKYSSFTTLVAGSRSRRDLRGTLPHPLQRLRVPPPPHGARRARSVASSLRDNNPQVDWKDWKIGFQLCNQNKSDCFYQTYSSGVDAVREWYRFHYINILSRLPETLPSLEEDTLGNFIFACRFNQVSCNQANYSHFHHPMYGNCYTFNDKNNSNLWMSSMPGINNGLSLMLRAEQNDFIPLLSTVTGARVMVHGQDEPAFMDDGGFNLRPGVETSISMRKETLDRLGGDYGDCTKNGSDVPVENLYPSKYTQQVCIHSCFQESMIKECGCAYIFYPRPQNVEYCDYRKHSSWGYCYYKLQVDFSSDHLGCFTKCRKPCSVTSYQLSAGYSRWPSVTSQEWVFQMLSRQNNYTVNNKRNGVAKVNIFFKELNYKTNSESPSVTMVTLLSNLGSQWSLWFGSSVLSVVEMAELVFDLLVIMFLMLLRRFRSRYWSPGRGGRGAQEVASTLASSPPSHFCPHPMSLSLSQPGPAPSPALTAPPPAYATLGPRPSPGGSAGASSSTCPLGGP
Sequence of epithelial Na+ channel (ENaC) on human bronchial epithelial cultures (P51168 whole entry, chain 2 of 3): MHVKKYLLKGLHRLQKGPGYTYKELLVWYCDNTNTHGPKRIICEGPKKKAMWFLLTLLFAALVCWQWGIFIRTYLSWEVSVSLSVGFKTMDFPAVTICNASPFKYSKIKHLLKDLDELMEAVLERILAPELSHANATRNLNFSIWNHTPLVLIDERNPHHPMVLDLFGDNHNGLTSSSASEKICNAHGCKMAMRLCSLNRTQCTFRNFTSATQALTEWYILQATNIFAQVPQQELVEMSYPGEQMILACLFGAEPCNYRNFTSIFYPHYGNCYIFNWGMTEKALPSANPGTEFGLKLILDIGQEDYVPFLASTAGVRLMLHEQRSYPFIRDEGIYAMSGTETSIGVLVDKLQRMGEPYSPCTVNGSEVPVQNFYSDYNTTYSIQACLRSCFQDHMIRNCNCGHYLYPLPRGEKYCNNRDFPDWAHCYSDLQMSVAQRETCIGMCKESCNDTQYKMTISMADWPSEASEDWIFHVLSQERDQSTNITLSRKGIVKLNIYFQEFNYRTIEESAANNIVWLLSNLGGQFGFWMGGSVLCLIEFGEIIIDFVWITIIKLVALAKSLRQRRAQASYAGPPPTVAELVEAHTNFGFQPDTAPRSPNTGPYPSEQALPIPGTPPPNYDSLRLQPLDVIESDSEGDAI
Sequence of epithelial Na+ channel (ENaC) on human bronchial epithelial cultures (P51170 whole entry, chain 3 of 3): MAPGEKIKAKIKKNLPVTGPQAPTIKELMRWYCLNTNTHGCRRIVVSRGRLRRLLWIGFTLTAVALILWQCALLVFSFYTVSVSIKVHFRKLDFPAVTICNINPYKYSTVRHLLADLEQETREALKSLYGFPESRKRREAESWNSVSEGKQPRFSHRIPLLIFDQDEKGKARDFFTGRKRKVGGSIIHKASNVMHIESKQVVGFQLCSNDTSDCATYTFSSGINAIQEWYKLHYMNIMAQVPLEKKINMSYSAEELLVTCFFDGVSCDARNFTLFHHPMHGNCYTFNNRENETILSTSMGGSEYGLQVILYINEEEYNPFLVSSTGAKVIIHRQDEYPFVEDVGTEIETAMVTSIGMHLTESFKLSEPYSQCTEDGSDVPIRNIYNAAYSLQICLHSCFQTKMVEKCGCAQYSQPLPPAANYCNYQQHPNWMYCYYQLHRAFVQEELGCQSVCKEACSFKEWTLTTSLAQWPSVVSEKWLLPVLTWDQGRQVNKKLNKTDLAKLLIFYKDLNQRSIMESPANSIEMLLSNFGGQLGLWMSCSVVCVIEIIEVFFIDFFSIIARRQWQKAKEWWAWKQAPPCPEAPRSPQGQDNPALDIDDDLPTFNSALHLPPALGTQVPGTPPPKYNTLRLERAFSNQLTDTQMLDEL

B1: aaLPNlePLDQTaa (SEQ ID NO:5) (peptide)
peptide: [dA][dA]LP[Nle]PLDQT[dA][dA]
IC50, dose response on airway cells (ASL height): 30 nM
